In the DeepSol protein solubility set:

Test: soluble on expression in E. coli; label from the status in PepcDB or PDB records

Soluble on expression in E. coli, not soluble:
MNVLIVGSGGREHALAWKMKQSPKVKNVIVAPGNGGHSERIDINSNDLDAVADFCEKHNIHCVLIGPEEPLSNGLADHLIRIHPNLMVFGPLKDGAQLETSKSFSKHFMKEYGLPTADFVTVSIENVKSLDCVFERLPWKNSVVKADGLAAGKGVIIPRNNAEAVEAARSILHGQFGNAGRTVIIEERLEGYEVSALAFTDGISFKRMPLGKDHKRLLESDLGPNTGMGVVAPVSVPKEVDRQIDEIFEKTLKGLADRKIKYCGVLYAGFMIVDQKPLLLEFNCRFGDPETQVLMRLLESDLFEIISSCVNQTLNTCDINWSTKSVCGVVLASGNYPKSGDKGSPITEIPSPDSTNVVFHAGTSVINSQIVTNGGRILCVTSLADTLHDAREHANKIAQNIQFTGKQFRKDIGKTIDIGTPSLSYGSSGVNIDEGNQFVEDIKLLVKKTLLPGAAQIGGFGAVLDLKKAGFSNDSQLVVGIDGVGTKIEVATHCNNFTGVGYDVVAMCVNDVICHCAKPIAFLDYFVCGKLERSMATQVLTSISEACVEAECSLIGGETAEMPGVYSTHQWDLAGCAIAARESTWPMLPLSSEIRDGDVILGLPSSGLHSNGFSLARKILTVNGVKYNDPLPWDSKSTFGTELLRGTKLYVKKVLPLLSTGLVKGCAHITGGGLTENAIRVLDKNSKDSLVIDCASWKFREIFNWMAAAGPVDTKEMIRTFNCGIGMVLIVSPDNVEKVKKQLRKHEEEFYEIGHVENSKNGEAIKFVNEEKMFQREKYTTQRKRVRVAILISGTGTNMQKLIERSKTPDSNCDVVLVVSNKEGAGGLTIAASYGIPTKVVPHTADRVTGDTELAQVLKDFGTELVCLGGYMRILSPCFISQFPSRIINIHPSLLPAFKGAHALQDALNFGVRIVGCTAHFVDELVDHGDIIAQRPVVVEDTDTIETVRQKIQLQEHEMFPNAMIAVAAKILEK
TLIFDREEKEAGALSGQKGTYVELTDISKNLQNAVIATEDRSFYKNDGINYGRFFLAIVTAGRSGGGSTITQQLAKNAYLSQDQTVERKAKEFFLALELSKKYSKEQILTMYLNNAYFGNGVWGVEDASKKYFGVSASEVSLDQAATLAGMLKGPELYNPLNSV
VPFDPGKIERAIAAAGQATGEFDPQQAQALAERVVERLPERACLDIERVQDLVERVLMEAGHYPTARAYVVYRERHGRLRRERKTLVDVAASMNEYLSREDWRVRANANQGYSLGGLILNVSGKVTANYWLDEVYDADIAAAHRDADLHIHDLDMLAGYCAGWSLRTLLNEGLNGVPGRVEAGPPKHLGSALGQMVNFLGTLQNEWAGAQAFSSFDTYLAPYVRKDRLDYASVRQALQEFIYNLNVPSRWGTQTPFTNLTFDWVCPDDLRDQVPRIGGEEMPFAYGELQAEMDLINRAYIEVMQAGDAHGRVFTFPIPTYNITHDFPWDSDNATRLFEMTARYGLPYFQNFLNSDMQPNQVRSMCCRLQLDVRELLKRGNGLFGSAEQTGSLGVVTINCARLGYRHRGDAAGLYRQLDHLLELAFASLELKRKVIQQHMDAGLYPYTRRYLGTLRNHFSTIGVNGLHEMVRNFSDDREGLHSEAGREMALALLDHVRARLVGFQEDSGHLYNLEATPAEGTTYRFAREDRKRYPRILQAGTPEAPYYTNSSQLPVGFTDDPFEALELQDALQCKYTGGTVLHLYMAERISSAEACKTLVRTALGRFRLPYLTVTPTFSICPRHGYLAGEHEFCPKCDEELLQRSTPKSCCGGC
YIRKRVPLLCLGKRWFVFDKSLMKKTISYGSTSAMQQVCLQIGKTIIQAVVNTQGVSVMAAFTAVNRVDDFAYIPQQNIGHAMTTFIAQNKGAGKRERIRRGLQ
MSTENAHLQKEDIVIESWLHKKGEHIRNWRPRYFILFRDGTLLGFRSKPKEDQPLPEPLNNFMIRDAATVCLDKPRPNMFIVRCLQWTTVIERTFYADSADFRQMWIEAIQAVSSHNRLKENAGNTSMQEEDTNGNPSGESDVNMDATSTRSDNDFESTVMNIDEPEEVPRKNTVTMDDFDFLKVLGQGTFGKVILCREKSSDKLYAIKIIRKEMVVDRSEVAHTLTENRVLYACVHPFLTLLKYSFQAQYHICFVMEFANGGELFTHLQRCKTFSEARTRFYGSEIILALGYLHHRNIVYRDMKLENLLLDRDGHIKITDFGLCKEEIKYGDKTSTFCGTPEYLAPEVIEDIDYDRSVDWWGVGVVMYEMMCGRLPFSAKENGKLFELITTCDLKFPNRLSPEAVTLLSGLLERVPAKRLGAGPDDAREVSRAEFFKDVDWEATLRKEVEPPFKPNVMSETDTSFFDRVRYVSILLKVSEAI
MTIYQHLLILWSSLFASTFAGTAEEVAKHLELGSQFLARAQFADALTQYHAAIELDPKSYQAIYRRATTYLAMGRGKAAIVDLERVLELKPDFYGARIQRGNILLKQGELEAAEADFNIVLNHDSSNNDVQEKTALIEQHRQLRHQIKSAYAGGDCATVEEYINHIIEIQVWDASLYRMRAKCLEERGELKKAIHDMRIVSKLSTDSTDTMFETSKLLYTVGDLEESLNVIRECLKLNPDHKSCYPFYKKLRKVVKSLESMKKKVENSDWMACLEEGQKTMKFDPTPSVQLNVFRITNRCQREAGHISEAIAECNEILNDDPSDADILCERAEAHILDEDYDSAIEDYQKATEVNPDHREAKEGLEHAKRLKTQAGKRDYYKILGVKRNASKREITKAYRKLAQKWHPDNFSDEEEKKKAEKKFIDIAAAKEVLQDEEKRRQFDQGVDPLDPEAQRQGGGHHGGFGHGFPHGFHHFGGGGGGEHSFKFNWG
MIKNPKVLILTAHYGNGHVQVAKTLEQTFRQKGIEDVIVCDLFGESHPFITDITKYLYLKSYTIGKELYRLFYYGVEKIYDKKIASWYANFGRKRLKTLLQVEKPDIVINTFPIIAVPELKKQTGISIPVYNVLTDFCVHKIWIHREVDRYFVATDHVKELMVDIGVPAEQIVETGIPIRSSFELKVNPEIIYTKYQLCKNKKILLIVAGAHGVLGNVKELCQSFMSVPNLQVVVVCGKNEALKQDLLSLQKQNSDALKVFGYVENIDELFRVTSCMITKPGGITLSEAAALQVPVILYKPVPGQENENAMYFERKGAAVVIRDDSEVFAKTEALLQDDVKLLQMKEAMKSIYLPEPAGHIVDAILAENHAEPRHIPIKSPALAQSFTLEHHHHHH
MISIIYLFIPILLASAVPTSDVLSTRIKALEQVFIVFYCKPSCRFNETQLNSVTIKSFPKCKEVCGIIFIDSETDLTVEQMKKAFEKMRTLKGGFNIENTSLTSLSVFTADKEKGNFNVVGVGNSAAAMTSTKLLAERLKQKNGVYIRNNSQLNDPSVLYDLYLYRDRGIEACDIRIENNPKLEFSCDGGFLHMYNELIVRGNLKDCGCDGEKVNVSNVKEYSKCKTLDSGLNLVNINATFDYDSFLNVTMIRGSIAIRNTNLQSLSFLQNLQTIEYNSDIASVALNVQDNPEMIRLGLPILTKVIDTVEQTSMIQYSTYNKRQYFNFENLHPDFCVTITEIVALLNLGISTENIEAKLCKDPGPLDASFYCTFESMSKLSDTCMYILGDLLIDHEDEKYVSKLGVLQFLFGTLTIRNTNLTDLNFLDQMTYIGALNGNVTYFPVIQIYSNPNLRNVGLNGIMNIITKGNRTAIIQDNHPDLFKSTPCQLFGAYFSNPAMENRVNLTYIGSNCGERVHITSSQSGRISIGLSFSLFVLFWSFKSN

Soluble on expression in E. coli, soluble:
MLKHIPKNISPDLLKTLMEMGHGDEIVLADANYPSASCANKLIRCDGVNIPELLDSILYLMPLDSYVDSSIQFMNVVSGDDIPKIWGTYRQMIEGHGTDLKTITYLRREDFYERSKKAYAIVATGETSLYANIILKKGVVVERENVQ
MAHHHHHHSLRMTQAKTYKVSRDETQHGKDSEHHLIAGYNSSMRLWHNEEPSDTADKTPRSHEYETLGYVISGQVELTVDGQTLTLSAGDSYRVPKGAEHVFRVTETLTAVEVTTPATNKEG
QEDVTVKSVTLITKVFPEGEKVCAVVIEYPVEIDGQKLSPDQFSVKVKTGDTYSSRTITKVYANNSGGLSFSIFNNRGKYVVLELSTEDLHSNTIVFGPNFLNTRMKLDYIVSQLVPIFDVDGNEVEPFTSKQTDEKHLIIDDFLAFTFKDPETGVEIPYRLFVPKDVNPDRKYPLVVFLHGAGERGTDNYLQVAGNRGAVVWAQPRYQVVHPCFVLAPQCPPNSSWSTLFTDRENPFNPEKPLLAVIKIIRKLLDEYNIDENRIYITGLSMGGYGTWTAIMEFPELFAAAIPICGGGDVSKVERIKDIPIWVFHAEDDPVVPVENSRVLVKKLAEIGGKVRYTEYEKGFMEKHGWDPHGSWIPTYENQEAIEWLFEQSR
